The source of these data is CN110577603A (BEIJING DONGFANG BIOTECH CO LTD, dated 2019).

Assay [1] concerns the target T1, CD19 (on Raji lymphoma cells) (UniProt P15391 20-556, limits assumed).
T1 construct: whole, on cells; Raji is a human cell line; also called CD19抗原; 细胞表面CD19
T1 sequence (looked up): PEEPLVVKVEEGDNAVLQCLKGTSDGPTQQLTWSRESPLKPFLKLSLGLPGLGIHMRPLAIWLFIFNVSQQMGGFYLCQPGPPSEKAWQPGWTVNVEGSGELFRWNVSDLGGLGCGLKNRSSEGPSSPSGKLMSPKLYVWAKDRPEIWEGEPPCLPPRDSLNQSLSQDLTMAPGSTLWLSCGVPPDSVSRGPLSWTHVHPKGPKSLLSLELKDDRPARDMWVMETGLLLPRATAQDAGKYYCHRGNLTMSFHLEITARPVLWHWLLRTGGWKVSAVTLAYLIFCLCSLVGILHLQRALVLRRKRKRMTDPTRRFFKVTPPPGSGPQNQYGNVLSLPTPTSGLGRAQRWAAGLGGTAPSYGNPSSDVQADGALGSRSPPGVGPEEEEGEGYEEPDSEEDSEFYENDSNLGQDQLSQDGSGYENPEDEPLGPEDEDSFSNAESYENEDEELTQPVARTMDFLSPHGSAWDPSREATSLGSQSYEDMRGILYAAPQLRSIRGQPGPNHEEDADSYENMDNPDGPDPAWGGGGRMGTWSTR
In words: flow cytometry on Raji cells (CD19 positive), Alexa488 anti-human IgG-Fc, MFI fitted.

In assay [2] the target is T1, CD19 (on Raji lymphoma cells). Description: cell-based or functional assay.
Another assay concerns the target T2, CD3 (on Jurkat T cells) (UniProt P07766 23-207).
T2 construct: whole, on cells; Jurkat is a human cell line; also called CD3抗原; 细胞表面CD3
Description: flow cytometry on Jurkat cells (CD3 positive), Alexa488 anti-human IgG-Fc, MFI fitted.

T2 sequence (P07766 23-207): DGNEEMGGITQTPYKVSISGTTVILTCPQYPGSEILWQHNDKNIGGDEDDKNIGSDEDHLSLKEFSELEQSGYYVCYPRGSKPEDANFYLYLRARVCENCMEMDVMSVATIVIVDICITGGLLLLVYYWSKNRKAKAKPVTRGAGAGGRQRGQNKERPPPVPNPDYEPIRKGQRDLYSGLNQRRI

B1: 抗CD3和抗CD19双特异性抗体 JY039 (bispecific antibody)
chain (part 1 of 2): not shown
chain (part 2 of 2): not shown
heavy: QVQLQQSGAELVRPGSSVKISCKASGYAFSSYWMNWVKQRPGQGLEWIGQIWPGDGDTNYNGKFKGKATLTADESSSTAYMQLSSLASEDSAVYFCARRETTTVGRYYYAMDYWGQGTTVTVSS
light: DIQLTQSPASLAVSLGQRATISCKASQSVDYDGDSYLNWYQQIPGQPPKLLIYDASNLVSGIPPRFSGSGSGTDFTLNIHPVEKVDAATYHCQQSTEDPWTFGGGTKLEIK
notes: Three chains: anti-CD3 single-chain unit (full light chain - linker - full heavy chain), anti-CD19 heavy chain, anti-CD19 light chain; constant regions preferably IgG4, linker preferably (GGGGS)6; also called 双特异抗体JY039; not shown: linker (GGGGX)n, X = Gly or Ser, n = 1-6; preferred X = Ser and n = 6; IgG4 heavy chain constant region (preferred; light chain constant region of the anti-CD19 unit; …)
What is called EC50 is the concentration at which the effect is half-maximal. Read a high EC50 as weaker potency. For B1, the EC50 in assay [1] stood at 1.02 nM. In assay [2], the “EC50 of PBMC-mediated killing of Raji cells (LDH release)” value (“EC50 … (LDH release)” below) was determined as 0.00126 nM.

B2: 抗CD19的单克隆抗体 (built from the anti-CD19 sequences of JY039) (antibody, V domains shown)
VH: QVQLQQSGAELVRPGSSVKISCKASGYAFSSYWMNWVKQRPGQGLEWIGQIWPGDGDTNYNGKFKGKATLTADESSSTAYMQLSSLASEDSAVYFCARRETTTVGRYYYAMDYWGQGTTVTVSS
VL: DIQLTQSPASLAVSLGQRATISCKASQSVDYDGDSYLNWYQQIPGQPPKLLIYDASNLVSGIPPRFSGSGSGTDFTLNIHPVEKVDAATYHCQQSTEDPWTFGGGTKLEIK
notes: also called AntiCD19McAb; 抗CD19单克隆抗体
Turning to B2, the EC50 in assay [1] came to 0.191 nM. Also, in assay [2], the “EC50 … (LDH release)” value came to 0.222 nM.

B3: v5851双特异抗体 (专利CN105531374 A) (bispecific antibody)
chain 1: not shown
chain 2: not shown
chain 3: DIVMTQSPATLSLSPGERATLSCRSSKSLQNVNGNTYLYWFQQKPGQSPQLLIYRMSNLNSGVPDRFSGSGSGTEFTLTISSLEPEDFAVYYCMQHLEYPITFGAGTKLEIKRTVAAPSVFIFPPSDEQLKSGTASVVCLLNNFYPREAKVQWKVDNALQSGNSQESVTEQDSKDSTYSLSSTLTLSKADYEKHKVYACEVTHQGLSSPVTKSFNRGEC
On to B3, for which the half-maximal effective concentration (EC50) in assay [1] stood at 2.49 nM; in the assay with CD3 (on Jurkat T cells), 59.8 nM. In assay [2], the “EC50 … (LDH release)” value stood at 0.03 nM.
